Results taken from paper PMC8805389, “High-level production of the agmatine in engineered Corynebacterium crenatum with the inhibition-releasing arginine decarboxylase” (Microbial Cell Factories, 2022).

How the values were obtained:
[1] = substrate: N=C(N)NCCC[C@H](N)C(=O)O; test: purified protein; conditions: 50 mM Tris-HCl pH 8.0, 2.5 mM MgSO4, 0.6 mM PLP, 37 °C
[2] = substrate: N=C(N)NCCC[C@H](N)C(=O)O; test: arginine decarboxylase activity, agmatine by HPLC; type: biochemical, Escherichia coli; conditions: 50 mM Tris-HCl pH 8.0, 2.5 mM MgSO4, 0.6 mM PLP, 37 °C
From the text: arginine decarboxylase activity, agmatine by HPLC on SpeA

B1: SpeA (Escherichia coli K-12) (protein)
chain: MSDDMSMGLPSSAGEHGVLRSMQEVAMSSQEASKMLRTYNIAWWGNNYYDVNELGHISVCPDPDVPEARVDLAQLVKTREAQGQRLPALFCFPQILQHRLRSINAAFKRARESYGYNGDYFLVYPIKVNQHRRVIESLIHSGEPLGLEAGSKAELMAVLAHAGMTRSVIVCNGYKDREYIRLALIGEKMGHKVYLVIEKMSEIAIVLDEAERLNVVPRLGVRARLASQGSGKWQSSGGEKSKFGLAATQVLQLVETLREAGRLDSLQLLHFHLGSQMANIRDIATGVRESARFYVELHKLGVNIQCFDVGGGLGVDYEGTRSQSDCSVNYGLNEYANNIIWAIGDACEENGLPHPTVITESGRAVTAHHTVLVSNIIGVERNEYTVPTAPAEDAPRALQSMWETWQEMHEPGTRRSLREWLHDSQMDLHDIHIGYSSGIFSLQERAWAEQLYLSMCHEVQKQLDPQNRAHRPIIDELQERMADKMYVNFSLFQSMPDAWGIDQLFPVLPLEGLDQVPERRAVLLDITCDSDGAIDHYIDGDGIATTMPMPEYDPENPPMLGFFMVGAYQEILGNMHNLFGDTEAVDVFVFPDGSVEVELSDEGDTVADMLQYVQLDPKTLLTQFRDQVKKTDLDAELQQQFLEEFEAGLYGYTYLEDE
[1]
  Km: 0.602 ± 0.092 mM
  kcat: 1.79 ± 0.135 s⁻¹
  kcat/Km: 2970 M⁻¹ s⁻¹

B2: SpeA (Escherichia coli K-12; I534D) (protein)
chain: MSDDMSMGLPSSAGEHGVLRSMQEVAMSSQEASKMLRTYNIAWWGNNYYDVNELGHISVCPDPDVPEARVDLAQLVKTREAQGQRLPALFCFPQILQHRLRSINAAFKRARESYGYNGDYFLVYPIKVNQHRRVIESLIHSGEPLGLEAGSKAELMAVLAHAGMTRSVIVCNGYKDREYIRLALIGEKMGHKVYLVIEKMSEIAIVLDEAERLNVVPRLGVRARLASQGSGKWQSSGGEKSKFGLAATQVLQLVETLREAGRLDSLQLLHFHLGSQMANIRDIATGVRESARFYVELHKLGVNIQCFDVGGGLGVDYEGTRSQSDCSVNYGLNEYANNIIWAIGDACEENGLPHPTVITESGRAVTAHHTVLVSNIIGVERNEYTVPTAPAEDAPRALQSMWETWQEMHEPGTRRSLREWLHDSQMDLHDIHIGYSSGIFSLQERAWAEQLYLSMCHEVQKQLDPQNRAHRPIIDELQERMADKMYVNFSLFQSMPDAWGIDQLFPVLPLEGLDQVPERRAVLLDITCDSDGADDHYIDGDGIATTMPMPEYDPENPPMLGFFMVGAYQEILGNMHNLFGDTEAVDVFVFPDGSVEVELSDEGDTVADMLQYVQLDPKTLLTQFRDQVKKTDLDAELQQQFLEEFEAGLYGYTYLEDE
notes: C-terminal His-tag; expressed in E. coli BL21(DE3) from pXMJ19; HisTrap purified; tetramer (two dimers)
[2]
  Km: 0.623 ± 0.075 mM
  kcat: 2.64 ± 0.328 s⁻¹
  kcat/Km: 4240 M⁻¹ s⁻¹

B3: SpeA (Escherichia coli K-12; I534S) (protein)
chain: MSDDMSMGLPSSAGEHGVLRSMQEVAMSSQEASKMLRTYNIAWWGNNYYDVNELGHISVCPDPDVPEARVDLAQLVKTREAQGQRLPALFCFPQILQHRLRSINAAFKRARESYGYNGDYFLVYPIKVNQHRRVIESLIHSGEPLGLEAGSKAELMAVLAHAGMTRSVIVCNGYKDREYIRLALIGEKMGHKVYLVIEKMSEIAIVLDEAERLNVVPRLGVRARLASQGSGKWQSSGGEKSKFGLAATQVLQLVETLREAGRLDSLQLLHFHLGSQMANIRDIATGVRESARFYVELHKLGVNIQCFDVGGGLGVDYEGTRSQSDCSVNYGLNEYANNIIWAIGDACEENGLPHPTVITESGRAVTAHHTVLVSNIIGVERNEYTVPTAPAEDAPRALQSMWETWQEMHEPGTRRSLREWLHDSQMDLHDIHIGYSSGIFSLQERAWAEQLYLSMCHEVQKQLDPQNRAHRPIIDELQERMADKMYVNFSLFQSMPDAWGIDQLFPVLPLEGLDQVPERRAVLLDITCDSDGASDHYIDGDGIATTMPMPEYDPENPPMLGFFMVGAYQEILGNMHNLFGDTEAVDVFVFPDGSVEVELSDEGDTVADMLQYVQLDPKTLLTQFRDQVKKTDLDAELQQQFLEEFEAGLYGYTYLEDE
notes: as for B2
[2]
  Km: 0.691 ± 0.069 mM
  kcat: 2.12 ± 0.206 s⁻¹
  kcat/Km: 3070 M⁻¹ s⁻¹
